For 1 substance, inhibition of forskolin-stimulated cAMP production, 25 and 100 nM uncleaved GlyRS results are on record in US20100028352A1.

For the test, the target named is Gi-GPCRs on endothelial cells. Kind of test: cell-based or functional assay.

“Full-length recombinant human GlyRS (from UniProt P41250 55-739) (enzyme)” had an inhibition of forskolin-stimulated cAMP production, 25 and 100 nM uncleaved GlyRS of 10%.
